The source of these data is US10188742B2, “Bi-specific antibodies and uses thereof” (ACADEMIA SINICA, priority 2014, dated 2019).

The test system of data set [1] is Jurkat T cells (Tag-72 positive). In words: Cancer cell selectivity of hE11 BsAbs (surface immunofluorescence). The format is cell-based, human. Conditions: culture medium, FIG. 10. The method, then:
PEG2×TAG72 or control PEG2×DNS BsAbs (10 μg/mL) were incubated with A-375 (TAG72−), MCF-7 (TAG72+), Jurkat (TAG72+) or OVCAR-3 (TAG72+) cells at 4° C. for 30 min followed by FITC-labeled goat anti-human immunoglobulin second antibody (2 μg/mL) (Jackson ImmunoResearch Laboratories, West Grove, Pa.) or FITC-labeled 4arm-PEG (2 μg/mL). Tumor-specific targeting of PEGylated compounds was also examined by staining A431 (EGFR^high), and Raji (CD19^high) cell lines with 10 μg/mL of h6.3Fab×EGFR or h6.3Fab×CD19 BsAbs in PBS containing 0.05% BSA (staining buffer) at 4° C. for 30 min. The cells were washed with cold PBS for 3 times. […] After washing with cold PBS, the surface fluorescence of 10^4 viable cells was measured by FACScaliber flow cytometer (Becton Dickinson, Mountain View, Calif., USA) then analyzed with Flowjo (Tree Star Inc., San Carlos, Calif., USA). […]
The binding specificity of monovalent BsAbs with their target proteins was measured by collecting the culture medium of BsAbs producing cells, adding the collected medium to cells that expressed the target protein, then determining the binding by ELSA. After washing the cells, the bound BsAbs were detected by FITC-labeled goat anti-human immunoglobulin second antibody. […]

The subject of data set [2] is mucin (TAG-72 tumor antigen). In words: ELISA antigen binding of hE11 BsAbs. Conditions: FIG. 6A. The method, then: (§1) The anti-PEG binding specificity of BsAbs was measured by adding graded concentrations of PEG2×TAG72, PEG2×DNS, hCC49 scFv, h6.3Fab×EGFR or h6.3Fab×CD19 in 50 μL 2% skim milk to the mucin, BSA-PEG5000, NH2-PEG3k-NH2 or BSA coated plates at RT for 1 h. The plates were washed with PBS-T (PBS containing 0.05% Tween-20) three times. Rabbit anti-6×His (2 μg/mL) supplemented with HRP-conjugated goat anti-rabbit (2 μg/mL) or HRP-conjugated goat Ig anti human IgG Fab (2 μg/mL) (Jackson ImmunoResearch Laboratories, West Grove, Pa.) in 50 μL dilution buffer were added for 1 h at room temperature. The plates were washed with PBS-T (PBS containing 0.05% Tween-20) three times and with PBS two times. Bound peroxidase activity was measured by adding 150 μL/well ABTS substrate solution (BioLegend, San Diego, Calif.) for 30 min at room temperature. The absorbance (405 nm) of wells was measured in a microplate reader (Molecular Device, Menlo Park, Calif.).
Binding of the BsAbs was detected by ELISA. Microtiter plates were first coated with antigens and then PEG2×TAG72, PEG2×DNS BsAbs or hCC49 (anti-TAG72) single chain antibody was added. After the plates were extensively washed to remove unbound antibodies, the remaining bound antibodies in each well were detected with HRP-conjugated secondary antibody. […] In sum, PEG2×TAG72 anti-PEG (hE11) BsAb of example 1.2 can bind both PEG and tumor antigens.
Background: An ELISA detects its analyte on a solid surface through an enzyme-linked reagent.

Data set [3] relates to Raji cells (CD19+). In words: Flow cytometry: BsAb-directed PEG-liposome Texas Red / PEG-Qdot655 on cells. The class given is cell-based. Conditions: PEG-liposome Texas Red and PEG-Qdot655, 10 μg/mL BsAb. The method, then:
PEG2×TAG72 or control PEG2×DNS BsAbs (10 μg/mL) were incubated with A-375 (TAG72−), MCF-7 (TAG72+), Jurkat (TAG72+) or OVCAR-3 (TAG72+) cells at 4° C. for 30 min followed by FITC-labeled goat anti-human immunoglobulin second antibody (2 μg/mL) (Jackson ImmunoResearch Laboratories, West Grove, Pa.) or FITC-labeled 4arm-PEG (2 μg/mL). Tumor-specific targeting of PEGylated compounds was also examined by staining A431 (EGFR^high), and Raji (CD19^high) cell lines with 10 μg/mL of h6.3Fab×EGFR or h6.3Fab×CD19 BsAbs in PBS containing 0.05% BSA (staining buffer) at 4° C. for 30 min. The cells were washed with cold PBS for 3 times. PEG-Qdot655 (8 nM) (Invitrogen, Grand Island, N.Y.) or PEG-liposomal Texas-Red (100 nm size, 50 μM, lipid conc.) (FormuMax Scientific, Palo Alto, Calif.) in staining buffer was added to cells for 30 min at 4° C. Raji cells (CD19+) or SKBR3 cells (HER2+) were incubated with 10 μg/ml h15-2b-knob/BU12-hole, h15-2b-knob/anti-Her2-hole, h6-3-knob/BU12-hole or h6-3-knob/anti-Her2-hole BsAbs, washed and incubated with 0.25 μg/ml FITC-labeled goat anti-human IgG or 10 nM methoxy-PEG Qdot 655 at 4° C. for 30 min. After washing with cold PBS, the surface fluorescence of 10^4 viable cells was measured by FACScaliber flow cytometer (Becton Dickinson, Mountain View, Calif., USA) then analyzed with Flowjo (Tree Star Inc., San Carlos, Calif., USA). […]

Data set [4] has as its system Raji (CD19+) cells. In words: Cytotoxicity assay of Doxisome with h6.3 BsAbs (3H-thymidine). Conditions: compared with Doxisome alone. The class given is cell-based. As to the method:
A431 (EGFR^high) and Raji (CD19^high) cells (5000 cells/well) were seeded in 96-well plates overnight. Fifteen microgram per mL of h6.3Fab×EGFR or h6.3Fab×CD19 BsAbs were added to the cells for 30 min at 37° C. and followed by graded concentrations of free doxorubicin or PEGylated liposomal doxorubicin (Doxisome®, Taiwan Liposome Company Ltd., Taipei, Taiwan) was added to the cells in triplicate at 37° C. for 4 h. The cells were subsequently washed once and incubated for an additional 48 h in fresh culture medium and then pulsed for 16 h with ^3H-thymidine (1 μCi/well). Results are expressed as percent inhibition of ^3H-thymidine incorporation into cellular DNA in comparison to untreated cells.
Next, the ability of whether h6.3Fab×CD19 and h6.3Fab×EGFR BsAbs could increase the cytotoxicity of the drug-loaded nanoparticles (NPs) to antigen-positive cancer cells was investigated. Raji (CD19+) and A431 (EGFR+) cells were incubated with h6.3Fab×CD19 and h6.3Fab×EGFR, followed by the addition of graded concentrations of Doxisome (i.e., PEGylated liposomal doxorubicin).

Data set [5] can be described thus: ELISA PEG binding of h6.3 BsAbs. Conditions: FIG. 14A. The method, then: as §1, with “The anti-PEG binding specificity of BsAbs was measured by adding graded concentrations of PEG2×TAG72, PEG2×DNS, hCC49 scFv, h6.3Fab×EGFR or h6.3Fab×CD19 in 50 μL 2% skim milk to the mucin, BSA-PEG5000, NH2-PEG3k-NH2 or BSA coated plates at RT for 1 h.” left out
The PEG-binding kinetics of h6-3Fab×EGFR and h6.3Fab×CD19 BsAbs were verified by Microscale Thermophoresis (MST) (FIGS. 14D and 14E).

For data set [6], the system named is A431 (EGFR+) tumor cells. In words: Confocal live cell imaging of PEG-Qdot655 internalization. The format is cell-based, human. Conditions: 10 μg/mL BsAb, 16 nM PEG-Qdot655. The method, then: The coverslips (30 mm) in POC chambers were coated with 10 μg/mL poly-L-lysine in PBS for 30 min at room temperature. The coverslips were washed twice with PBS and then 5×10^4 cells/chamber of A431 (EGFR+) tumor cells were seeded on the coverslips. A431 cells were incubated with 10 μg/mL of h6.3Fab×EGFR or h6.3Fab×CD19 BsAbs at 37° C. for 30 min containing 1 μg/mL of Hoechst 33342 and 100 nM of LysoTracker® Red DND-99 (Invitrogen Life Technologies Corporation, NY, USA). The cells were washed with culture medium for 2 times. Cell imaging was recorded with an Axiovert 200M Confocal Microscope (Carl Ziess Inc., Thornwood, N.Y.) after adding 16 nM of PEG-Qdot655 solution (Invitrogen Life Technologies Corporation, NY, USA).
To verify whether BsAb-targeted substance could be internalized by antigen-positive cancer cells, live cell imaging was performed by staining cells with lysosome tracker and BsAbs, followed by the addition and incubation of PEG-Qdot655.

Data set [7] has as its target BSA (Bos taurus, UniProt P02769). In words: ELISA antigen binding of BsAbs, control protein. As to the method: as §1
Binding of the BsAbs was detected by ELISA. Microtiter plates were first coated with antigens and then PEG2×TAG72, PEG2×DNS BsAbs or hCC49 (anti-TAG72) single chain antibody was added. After the plates were extensively washed to remove unbound antibodies, the remaining bound antibodies in each well were detected with HRP-conjugated secondary antibody. […] In sum, PEG2×TAG72 anti-PEG (hE11) BsAb of example 1.2 can bind both PEG and tumor antigens. […]

Sequence of BSA (P02769 25-607): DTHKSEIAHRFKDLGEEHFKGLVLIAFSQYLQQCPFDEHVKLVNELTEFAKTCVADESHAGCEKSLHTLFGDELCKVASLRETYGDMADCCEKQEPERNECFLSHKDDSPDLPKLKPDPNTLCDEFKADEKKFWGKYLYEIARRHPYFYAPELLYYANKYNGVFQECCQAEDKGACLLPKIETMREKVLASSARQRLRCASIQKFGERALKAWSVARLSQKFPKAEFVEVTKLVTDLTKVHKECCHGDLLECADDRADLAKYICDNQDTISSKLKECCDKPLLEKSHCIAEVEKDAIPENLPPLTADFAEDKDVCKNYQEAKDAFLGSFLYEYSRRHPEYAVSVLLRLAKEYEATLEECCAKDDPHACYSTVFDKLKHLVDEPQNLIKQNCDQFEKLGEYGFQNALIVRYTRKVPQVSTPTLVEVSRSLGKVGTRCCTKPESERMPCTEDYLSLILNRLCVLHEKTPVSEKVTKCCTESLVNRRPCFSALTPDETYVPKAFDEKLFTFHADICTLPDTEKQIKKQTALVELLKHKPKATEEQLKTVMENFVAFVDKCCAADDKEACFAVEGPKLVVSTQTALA

B1: PEG×TAG72: monovalent BsAb: hE11 anti-PEG Fab fused to anti-TAG72 scFv (example 2.1) (protein)
light: DVVMTQSPLSLPVTLGQPASISCRSSKSIVHSNGNTYLEWFQQRPGQSPRRLIYKVSKRMSGVPDRFSGSGSGTDFTLKISRVEAEDVGVYYCSQGSHVPPTFGGGTKVEIKRTVAAPSVFIFPPSDEQLKSGTASVVCLLNNFYPREAKVQWKVDNALQSGNSQESVTEQDSKDSTYSLSSTLTLSKADYEKHKLYACEVTHQGLSSPVTKSFNRGEC
heavy: QVQLVQSGAEVKKPGASVKVSCKASGYTFTTYTMNWVRQAPGQGLEWMGYIIPSSGYVDYNQKFKGRVTMTRDTSTSTVYMELSSLRSEDTAVYYCVRSLDGYFWFAYWGQGTLVTVSSASTKGPSVFPLAPSSKSTSGGTAALGCLVKDYFPEPVTVSWNSGALTSGVHTFPAVLQSSGLYSLSSVVTVPSSSLGTQTYICNVNHKPSNTKVDKRVVDLVTVSSASTGGGSGQLGGGGSQVQLVQSGAEVKKPGASVKVSCKASGYTFTDHAIHWVRQAPGQCLEWMGYFSPGNDDFKYSQKFQGRVTITADKSASTAYMELSSLRSEDTAVYYCARSWIMQYWGQGTLVTVSSGGGGSGGGGSGGGGSDIVMTQSPDSLAVSLGERATINCKSSQSVLYSSNNKNYLAWYQQKPGQPPKLLIYWASTRESGVPDRFSGSGSGTDFTLTISSLQAEDVAVYYCQQYYSYPLTFGCGTKVEIKTRHHHHHH
With B1, the “binding of monovalent BsAb to Jurkat T cells” value in data set [1] was “bound to Jurkat T cells”.

B2: hcc49 scFv: humanized single-chain antibody fragment against TAG-72 antigen (protein)
scFv: QVQLVQSGAEVKKPGASVKVSCKASGYTFTDHAIHWVRQAPGQCLEWMGYFSPGNDDFKYSQKFQGRVTITADKSASTAYMELSSLRSEDTAVYYCARSWIMQYWGQGTLVTVSSGGGGSGGGGSGGGGSDIVMTQSPDSLAVSLGERATINCKSSQSVLYSSNNKNYLAWYQQKPGQPPKLLIYWASTRESGVPDRFSGSGSGTDFTLTISSLQAEDVAVYYCQQYYSYPLTFGCGTKVEIK
For B2, the binding to mucin entry in data set [2] is “bound to mucin”.

B3: h6.3Fab×CD19: monovalent humanized anti-PEG h6.3 Fab fused to hBU12 anti-CD19 dsFv; SEQ ID NO 9, 10, 4, 11, 6 (protein)
chain 1: DIVMTQSPDSLAVSLGERATINCKSSQSVLYSSNQMNYLAWYQQKPGQPPKLLIYWASTRESGVPDRFSGSGSGTDFTLTISSLQAEDVAVYYCLQYLSSWTFGGGTKLEIKTYSLSSTLTLSKADYEKHKLYACEVTHQGLSSPVTKSFNRGEC
chain 2: QVQLVQSGSELKKPGASVKVSCKASGYTFKNYGMNWVRQAPGQGLEWMGWINTYTGQPIYANDFKGRFVFSLDTSVSTAYLQISSLKAEDTAVYYCARDWGPYWGQGTLVTVSSASTKGPSVFPLAPSSKSTSGGTAALGCLVKDYFPEPVTVSWNSGALTSGVHTFPAVLQSSGLYSLSSVVTVPSSSLGTQTYICNVNHKPSNTKVDKRVEPKSCDK
chain 3: VDLVTVSSASTGGGSGQLGGGGS
chain 4: QVQLQESGPGLVKPSQTLSLTCTVSGGSISTSGMGVGWIRQHPGKCLEWIGHIWWDDDKRYNPALKSRVTISVDTSKNQFSLKLSSVTAADTAVYYCARMELWSYYFDYWGQGTLVTVSSGGGGSGGGGSGGGGSEIVLTQSPATLSLSPGERATLSCSASSSVSYMHWYQQKPGQAPRLLIYDTSKLASGIPARFSGSGSGTDFTLTISSLEPEDVAVYYCFQGSVYPFTFGCGTKLEIKR
chain 5: TRHHHHHH
modifications: Humanized 6.3 VL-Ck; Humanized 6.3 VH-CH1; Peptide Linker; hBU12 dsFv; 6xHis Tag
As to B3, the “directing PEGylated substance to Raji cells” value in data set [3] is “capable of directing PEGylated substance to Raji cells”. Besides, the “effect on cytotoxicity of Doxisome to Raji cells” value in data set [4] was “enhanced cytotoxicity of Doxisome”. For the same molecule, in data set [5], the “binding to NH2-PEG10,000-NH2” value is recorded as “bound to the NH2-PEG10,000-NH2”. Also, the “uptake of PEG-Qdot655 into A431 cells (endocytic vesicles)” value in data set [6] is given as “failed to produce PEG-Qdot655 signals”. The “binding to BSA” value in data set [7] is “not to the control BSA protein”.
